Reference: patent EP3639857B1, “ERYTHROPOIETIN COMPOSITION WITH IMPROVED STABILITY AND METHOD FOR PREPARING SAME” (Hankook Korus Pharmaceutical Co. Ltd., priority 2017, dated 2018)

Experiments:
[1] = test system: B6D2F1 mice; assay: Pharmacodynamics in mice after intraperitoneal administration, CBC test; assay type: in vivo; details: for RBC Increase (%) / Reticulocyte (×10^9/L) Increase (%): 7d vs 0d
Description: Pharmacodynamics were measured by a method of intraperitoneally administrating the PEG-EPO conjugates to B6D2F1 mice (female, 7 weeks old, body weight of 20.02±0.88 g). Specifically, 1.25, 2.5, 5, or 20 µg/kg of EPO, PEG-EPO-TS, or PEG-EPO-Mircera drugs were administered, after 7 days, 200 to 300 µl of the blood was collected from the facial vein by using a lancet into a micro EDTA tube (MiniCollect, Greiner Bio One International GmbH), the shaker was used to sufficiently mix the EDTA to prevent coagulation, and then, the CBC test was performed by using the ADVIA 2120i (Siemens AG) equipment within one hour. The results are shown in Table 10 below with the comparison of CBC results before drug administration.

[2] = Pharmacokinetics in rat after intravenous administration, erythropoietin in blood by ELISA, non-compartmental analysis; assay type: in vivo; details: SD rats
Description: Pharmacokinetics were measured by a method of intravenously administrating PEG-EPO conjugates to SD rats (male, 7 weeks old, body weight of 243.53±14.33 g). Specifically, after the administration of 3 µg/kg of EPO, PEG-EPO-TS, or PEG-EPO-Mircera, after 0, 0.5, 1, 2, 4, 8, 24 (1 d), 48 (2 d), 96 (4 d), and 168 ([…]) hours, blood was collected from the rats with an SST tube, centrifuged at 6,000 rpm for 10 minutes at 4°C, and stored at -80°C until the concentration measurement. The concentration of erythropoietin in the blood was measured by ELISA.
The pharmacokinetic analysis of the measured concentration results was performed by non-compartmental analysis (NCA), and the analysis was performed with the program of Phoenix WinNonlin 7.0 (Certara USA Inc., Princeton, NJ, USA). Individual NCA parameters were calculated.

[3] = i.p. 20 µg/kg, 0d (before drug administration)

For “PEG-EPO-Mircera: commercially available pegylated EPO (Mircera, Roche Korea Co., Ltd.), comparative group [reference compound]”, the “Reticulocyte (×10^9/L) 0d” value ([1]; i.p. 1.25 µg/kg, 0d (before drug administration)) was 228. 40 ×10^9/L, the “Reticulocyte (%) 7d” value ([1]; i.p. 1.25 µg/kg) was 4.78% and the “RBC Increase (%)” value ([1]; i.p. 1.25 µg/kg) was 15.03%. For the same substance, the “Reticulocyte (×10^9/L) Increase (%)” value ([1]; i.p. 1.25 µg/kg) was 98.51%, the “Reticulocyte (×10^9/L) 0d” value ([1]; i.p. 2.5 µg/kg, 0d (before drug administration)) was 143. 50 ×10^9/L and the “RBC(×10^6/µl) 7d” value ([1]; i.p. 2.5 µg/kg) was 12. 16 ×10^6/µl. For the same substance, the “Reticulocyte (%) 7d” value ([1]; i.p. 2.5 µg/kg) was 4.05%, the “RBC Increase (%)” value ([1]; i.p. 2.5 µg/kg) was 37.25% and the “Reticulocyte (×10^9/L) Increase (%)” value ([1]; i.p. 2.5 µg/kg) was 242.79%. The “Reticulocyte (×10^9/L) 0d” value ([1]; i.p. 5 µg/kg, 0d (before drug administration)) was 134. 10 ×10^9/L, the “RBC(×10^6/µl) 7d” value ([1]; i.p. 5 µg/kg) was 12. 01 ×10^6/µl and the “Reticulocyte (×10^9/L) 7d” value ([1]; i.p. 5 µg/kg) was 1548. 00 ×10^9/L. The “RBC Increase (%)” value ([1]; i.p. 5 µg/kg) was 31.26%, the “RBC(×10^6/µl) 0d” value [1, 3] was 10. 43 ×10^6/µl and the “Reticulocyte (×10^9/L) 0d” value [1, 3] was 194. 70 ×10^9/L. For the same substance, the “RBC(×10^6/µl) 7d” value ([1]; i.p. 20 µg/kg) was 13. 55 ×10^6/µl, the “Reticulocyte (×10^9/L) 7d” value ([1]; i.p. 20 µg/kg) was 2347. 00 ×10^9/L and the “RBC Increase (%)” value ([1]; i.p. 20 µg/kg) was 29.91%. The “concentration of erythropoietin in the blood 0 h” value ([2]; IV 3 µg/kg, 0 h) was 0, the “concentration of erythropoietin in the blood 0.5 h” value ([2]; IV 3 µg/kg, 0.5 h) was 8.7 and the “concentration of erythropoietin in the blood 1h” value ([2]; IV 3 µg/kg, 1 h) was 7.6. The “concentration of erythropoietin in the blood 2h” value ([2]; IV 3 µg/kg, 2 h) was 6.3, the “concentration of erythropoietin in the blood 4h” value ([2]; IV 3 µg/kg, 4 h) was 6.8 and the “concentration of erythropoietin in the blood 8h” value ([2]; IV 3 µg/kg, 8 h) was 4.9. For the same substance, the “concentration of erythropoietin in the blood 24h” value ([2]; IV 3 µg/kg, 24 h) was 3.6, the “concentration of erythropoietin in the blood 48h” value ([2]; IV 3 µg/kg, 48 h) was 2.1 and the “concentration of erythropoietin in the blood 96h” value ([2]; IV 3 µg/kg, 96 h) was 0.7. For the same substance, the “concentration of erythropoietin in the blood 168h” value ([2]; IV 3 µg/kg, 168 h) was 0.1, the “AUCinf” value ([2]; IV 3 µg/kg, NCA, administration to infinity) was 288.60 ng·h/mL and the “AUClast” value ([2]; IV 3 µg/kg, NCA, administration to last measured concentration) was 284.59 ng·h/mL. For the same substance, the “C1” value ([2]; IV 3 µg/kg, NCA, clearance) was 1.8707 mL/min/kg, the “T1/2” value ([2]; IV 3 µg/kg, NCA, half-life) was 27.83 h and the “C0” value ([2]; IV 3 µg/kg, NCA, initial concentration) was 9.96 ng/mL. For the same substance, the “Cmax” value ([2]; IV 3 µg/kg, NCA, maximal concentration) was 8.7 ng/mL, the “MRTlast” value ([2]; IV 3 µg/kg, NCA, mean residence time to last measured concentration) was 36.87 h and the “AUC%Extrap (%)” value ([2]; IV 3 µg/kg, NCA, percentage of extrapolated area) was 1.39%. For the same substance, the “Tmax” value ([2]; IV 3 µg/kg, NCA, time at maximal concentration) was 0.5 h, the “VZ” value ([2]; IV 3 µg/kg, NCA, volume of distribution) was 4.50667 L/kg and the “Vss” value ([2]; IV 3 µg/kg, NCA, volume of distribution at steady state) was 4.40632 L/kg. It also gave a half-life ([2]; IV administration) of 27.8 h.
